Where two headings read alike, the source gives them in different places.
How the values were obtained:
Y537S mutant ERα = system: Y537S mutant ERα; set-up: method as in Toy et al., 2013; conditions: breast cancer cells, ref Toy et al., 2013; cited from earlier work
D538G mutant ERα = system: D538G mutant ERα; set-up: method as in Toy et al., 2013; conditions: breast cancer cells, ref Toy et al., 2013; cited from earlier work
[1] = target: D538G estrogen receptor α ligand-binding domain (ERα amino acids 304–554), 6×His fusion, biotin-labelled at C417 (human) (UniProt P03372); experiment: FRET or BRET; time-resolved FRET, SRC titration, no ligand (apo): SRC3-fluorescein titrated from 3.2×10^-7 to 3.2×10^-12 M into 1 nM biotinylated ERα LBD on 0.25 nM streptavidin-terbium; 96-well plates
[2] = target: Y537S estrogen receptor α ligand-binding domain (ERα amino acids 304–554), 6×His fusion, biotin-labelled at C417 (human) (UniProt P03372); experiment: as above
[3] = target: wild type estrogen receptor α ligand-binding domain (ERα amino acids 304–554), 6×His fusion, biotin-labelled at C417 (human) (UniProt P03372); experiment: FRET or BRET; time-resolved FRET, SRC titration, ER pre-saturated with 1 µM E2: SRC3-fluorescein titrated from 3.2×10^-7 to 3.2×10^-12 M into 1 nM biotinylated ERα LBD on 0.25 nM streptavidin-terbium
[4] = target: D538G estrogen receptor α ligand-binding domain (ERα amino acids 304–554), 6×His fusion, biotin-labelled at C417 (human) (UniProt P03372); experiment: as above
[5] = target: Y537S estrogen receptor α ligand-binding domain (ERα amino acids 304–554), 6×His fusion, biotin-labelled at C417 (human) (UniProt P03372); experiment: as above
[6] = target: the molecule itself; experiment: crystal structure; D538G ERα LBD with 1 mM E2 and a 2.5-fold molar excess of GRIP peptide; hanging drop, 25% PEG 3,350, 200 mM MgCl2, 100 mM Tris pH 8.5, 1 mM phenylalanine
D538G ERα LBD = D538G ERα LBD (Homo sapiens, UniProt P03372, D538G, form not given); format: binding; conditions: for Kd: read-out: SRC-3 NRD Kd
Experimental: (§1) While bound to the Ni-NTA-agarose resin (Qiagen Inc., Santa Clarita, CA), the ERs were labeled with MAL-dPEG4-biotin (Quanta BioDesign, Powell, OH), site-specifically at C417. The SRC3-NRD construct has 4 cysteines and was labeled non-specifically, also while on the resin, with 5-iodoacetamido fluorescein (Molecular Probes, Invitrogen, Eugene, OR).
(§2) Diffusion-enhanced FRET was determined by a parallel incubation without biotinylated ER-LBD and subtracted as a background signal. […] The data, representing 2–3 replicate experiments, each with duplicate points, were analyzed using GraphPad Prism 4 and are expressed as the EC50 in nM.

Y537S ERα LBD = Y537S ERα LBD (Homo sapiens, UniProt P03372, Y537S, form not given); format: binding; conditions: for Kd: read-out: SRC-3 NRD Kd
Experimental: as §1, §2

WT ERα LBD = WT ERα LBD (Homo sapiens, UniProt P03372); format: binding; conditions: for SRC-3 NRD Kd: WT apo (absence of E2)
Experimental: as §1, §2

For `C[C@]12CC[C@@H]3c4ccc(O)cc4C[C@@H](CCCCCCCCC[S+]([O-])CCCC(F)(F)C(F)(F)F)[C@H]3[C@@H]1CC[C@@H]2O` (stereo partly shown) [fulvestrant], the “ablation of transcriptional activity of the mutant” value (from here on “ablation”) (Y537S mutant ERα) is given as “completely ablate” and the “ablation” value (D538G mutant ERα) is given as “completely ablate”.

In the case of “steroid receptor coactivator 3 nuclear receptor domain (amino acids 627–829), fluorescein-labelled (from UniProt Q9Y6Q9 627-829) (domain or fragment)”, the Kd [1] is reported as 151 nM, the Kd [2] is reported as 13.6 nM and the Kd [3] is reported as 2.67 nM. The Kd [4] was 3.65 nM and the Kd [5] was 0.59 nM.

For `CC/C(=C(\c1ccc(O)cc1)c1ccc(OCCN(C)C)cc1)c1ccccc1` [TOT, 4-hydroxytamoxifen], the “ablation” value (Y537S mutant ERα) is listed as “could not” and the “ablation” value (D538G mutant ERα) is listed as “could not”.

B1: ERα LBD D538G mutant (crystallisation construct, 6×His-TEV tag removed) (domain or fragment, human)
chain: KRSKKNSLALSLTADQMVSALLDAEPPILYSEYDPTRPFSEASMMGLLTNLADRELVHMINWAKRVPGFVDLTLHDQVHLLECAWLEILMIGLVWRSMEHPGKLLFAPNLLLDRNQGKCVEGMVEIFDMLLATSSRFRMMNLQGEEFVCLKSIILLNSGVYTFLSSTLKSLEEKDHIHRVLDKITDTLIHLMAKAGLTLQQQHQRLAQLLLILSHIRHMSNKGMEHLYSMKCKNVVPLYGLLLEMLDAHRLHAPTS
notes: Unresolved residues were not included in the deposited structures; also called apo D538G; D538G-E2; source: E. coli BL21 (DE3), purified (Ni-NTA, TEV cleavage, Resource Q ion exchange)
B1: binds [6].

B2: SRC3 NRD: steroid receptor coactivator 3 nuclear receptor domain, human, amino acids 627–829, fluorescein labeled (protein)
chain: CSSDDRGHSSLTNSPLDSSCKESSVSVTSPSGVSSSTSGGVSSTSNMHGSLLQEKHRILHKLLQNGNSPAEVAKITAEATGKDTSSITSCGDGNVVKQEQLSPKKKENNALLRYLLDRDDPSDALSKELQPQVEGVDNKMSQCTSSTIPSSSQEKDPKIKTETSEEGSGDLDNLDAILGDLTSSDFYNNSISSNGSHLGTKQQ
modifications: 5-iodoacetamido fluorescein on cysteines, non-specific (4 cysteines; an average of 1.8–2 fluorescein molecules attached); left off: His tag (inferred from the labelling on the resin), end not stated,
With B2 the Kd (D538G ERα LBD; D538G apo (absence of E2)) was 151 ± 20 nM, the Kd (D538G ERα LBD; D538G pre-saturated with E2 (1 µM ligand)) was 3.65 ± 0.4 nM and the “SRC3 binding curve plateau, of the maximum” value (D538G ERα LBD; D538G, absence of E2) was “approximately 60%”. For the same molecule, the Kd (Y537S ERα LBD; Y537S apo (absence of E2)) was 13.6 ± 2 nM, the Kd (Y537S ERα LBD; Y537S pre-saturated with E2 (1 µM ligand)) was 0.59 ± 0.1 nM and the “SRC3 binding curve plateau, of the maximum” value (Y537S ERα LBD; Y537S, absence of E2) was “approximately 60%”. The “SRC-3 NRD Kd” value (WT ERα LBD) was “no binding was detected”, the “SRC-3 NRD Kd” value (WT ERα LBD; listed as SRC-3 NRD) was “No Recruitment” and the Kd (WT ERα LBD; WT saturated with E2 (1 µM ligand), read-out: SRC-3 NRD Kd) was 2.67 ± 0.5 nM.

— paper PMC4821807, “Estrogen receptor alpha somatic mutations Y537S and D538G confer breast cancer endocrine resistance by stabilizing the activating function-2 binding conformation” (eLife, 2016)
